In US20200369754A1 (Janssen / Centocor, published 2020):
Substitutions are numbered along the chain they refer to. Names and notes keep the numbering of the source.

T1: Tau peptide A6940 (human, biotin (bound via biotin to a streptavidin biosensor in the Octet assay; position of the biotin not stated))
T1 construct: Biotinylated in the Octet assay; also called cognate Tau peptide A6940
T1 peptide: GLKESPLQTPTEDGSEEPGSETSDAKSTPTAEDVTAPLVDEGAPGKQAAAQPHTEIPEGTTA

B1: CBTAU-28.1 (I50M[VH];Y52W[VH];S103W[VH];S32R[VL];E35K[VL]) (antibody, V domains shown)
VH: QVQLQQSGAEVKKPGESLKISCEASGYSFTNYWIGWVRQMPGKGLEWMGMIWPGDSDTRYSPPFQGQVTITADRSITTAYLEWSSLKASDTAMYYCARVGRPWKGGWFDPWGQGTLVTVSS
VL: DIQMTQSPDSLAVSLGERATINCESSQTLLYRSNKKNYLAWYQQKPGQPPKLLISWASTPESGVPDRFSGSGSGTSFTLTISSLQAEDVAVYYCQQYYNSPYTFGQGTRLEIK
B2: CBTAU-28.1 (I50M[VH];Y52W[VH];S103F[VH];Y31W[VL];N99H[VL]) (antibody, V domains shown)
VH: B1 VH with W103F
VL: B1 VL with Y31W, R32S, K35E, N99H
B3: CBTAU-28.1 (S32R[VL];E35K[VL]) (antibody, V domains shown)
VH: B1 VH with M50I, W52Y, W103S
VL: B1 VL
B4: CBTAU-28.1 (I50M[VH];Y52W[VH];S103W[VH];Y31W[VL];N99H[VL]) (antibody, V domains shown)
VH: B1 VH
VL: B1 VL with Y31W, R32S, K35E, N99H
B5: CBTAU-28.1 (I50M[VH];Y52W[VH];S103F[VH];S32R[VL];E35K[VL]) (antibody, V domains shown)
VH: B1 VH with W103F
VL: B1 VL

Molecular target: T2, Aggregated recombinant 2N4R tau (rTau) (human, UniProt P10636 2-758, covalently labelled with pHrodo Green STP Ester)
T2 construct: Full-length huTau441 expressed in E. coli, in aggregated form; also called rTau aggregates; tau aggregates
T2 sequence (P10636 other isoform, or with tags, fused parts or gaps limits assumed): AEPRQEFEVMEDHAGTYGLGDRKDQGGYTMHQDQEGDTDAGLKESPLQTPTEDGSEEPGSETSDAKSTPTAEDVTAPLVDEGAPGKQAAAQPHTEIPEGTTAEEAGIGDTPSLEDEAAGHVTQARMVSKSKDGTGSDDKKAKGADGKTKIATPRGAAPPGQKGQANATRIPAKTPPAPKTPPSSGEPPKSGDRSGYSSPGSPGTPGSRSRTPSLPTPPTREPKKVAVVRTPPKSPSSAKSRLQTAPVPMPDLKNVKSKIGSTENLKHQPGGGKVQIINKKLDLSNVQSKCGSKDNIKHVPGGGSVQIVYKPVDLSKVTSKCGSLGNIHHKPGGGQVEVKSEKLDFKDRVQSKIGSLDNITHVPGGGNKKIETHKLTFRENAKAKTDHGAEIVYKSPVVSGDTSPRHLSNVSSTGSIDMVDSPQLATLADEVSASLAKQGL
Test: uptake of pHrodo-labelled rTau immunocomplexes by BV2 cells, flow cytometry
Description: In each experiment a mouse IgG1 isotype control was included together with cells incubate with only aggregated rTau.
Immunocomplexes were incubated over night at 4° C. and the day after applied to BV2 cells for 2 hours at 37° C. with 5% CO2. After incubation cells were harvested with 0.25% trypsin-EDTA for 20 min thus simultaneously removing Tau bound to the extracellular membrane, centrifuged at 400 rcf to remove medium removed, washed twice with PBS and resuspended in flow cytometry buffer (PBS 1× plus 0.5% BSA and 2 mM EDTA). Cells were analyzed with a Canto II flow cytometer (BD) gating for live single cell population, as identified by forward and side scatter profiles. Each experiment was conducted in duplicate.

Binder | binding result
B1 | binds
B2 | binds
B3 | binds
B4 | binds
B5 | binds

Molecular target: T1, Tau peptide A6940
Test: ITC, tau peptide 20 uM titrated with IgG 200 uM, PBS pH 7.4, one set of sites model
Description: Affinities of the novel antibodies were determined using a Microcal Auto-iTC200 isothermal titration calorimeter (Malvern). […] Data was fitted according to a one set of sites model using Microcal PEAQ-ITC Analysis Software (Malvern).
The continuous lines represent the fit of the data to a “one set of binding sites” model.

Binder | Kd [nM]
B1 | 67
B2 | 45
B4 | 57
B5 | 63
